Measured values: the nanobody polyreactivity screen of Harvey et al. (2022)

Assay: yeast display, Sf9 membrane polyspecificity reagent, FACS + sequencing; frameworks hold sequencing errors
Outline: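 A nanobody's polyreactivity label depends on the gate it was sorted from. Yeast display cells were stained with 10% biotinylated, detergent-solubilized Sf9 membrane reagent for 1 hour at 4 °C, enriched on streptavidin microbeads and sorted by FACS. The low and high (top ~1%) gates were set on anti-HA fluorescence for expression and streptavidin fluorescence for reagent binding.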

Sequence	polyreactivity (PSR sort gate)
QVQLVESGGGLVQAGGSLRLSCAASGFTFVRYAMGWYRQAPGKERELVAAISSSGSSTYYGDSVKGRFTISRDHEKNTVYLQMNSLKPEDTAVYYFNARAGRGEDYWGQGTQVTVSS	low polyreactivity
QVQLVESGGGLVQAGGSLRLSCAASGFTFVSYAMGGYRQAPGKERELVASISSGGSTYYADSVKGRFTISRDNAKNTVYLQMNSLKPEDTAVYYCAAYSRWGRWFTIYNYWGQGTQVTVSS	high polyreactivity
QVQLVESGGGLVQAGGSLRLSCAASGFTFVSYAMGWYRQAPGKEREFVATISKRGGSTYYADSVKGRFTNSRDNAKNTVYLQMNSLKPEDTAVYYCAAARNVYRGRVYWGRYDYWGQGTQVTVSS	high polyreactivity
QVQLVESGGGLVQAGGSLRLSCAASGFTFVYYAMGWYRPAPGKERDLVATISGNGGRTYYADSVKGRFTISRDNAKNTVYLQMNSLKPEDTAVYYCATDVGFGRKQRPHRPGYGYWGQGTQVTVSS	low polyreactivity
QVQLVESGGGLVQAGGSLRLSCAASGFTFVYYAMGWYRQAPGKERELVAAISRGGSTYYADSVKGRFTISRDNAKNTVYLQMNCLKPVDTAVYYCNAKKSGHYVSYPAYDYWGQGTQVTVSS	low polyreactivity
QVQLVESGGGLVQAGGSLRLSCAASGFTFVYYAMGWYRQAPGKERELVATITRSGDSTYYADSVKGRFTISRDNAKNTVYLQMNSLKPEDTAVYYCAAQPGTASYAGDGDSWGQGTQVTVSS	low polyreactivity
QVQLVESGGGLVQAGGSLRLSCAASGFTFWANAMGWYRQAPGKERELVAAISWSGGSTTYADSVKGRFTISRDNAKNTVYLQMNSLKPEDTAVYYCATDYGHYVTYRLSDYWGQGTQVTVSS	low polyreactivity
QVQLVESGGGLVQAGGSLRLSCAASGFTFWAYAMGWYRQAPGKERELVAPISWSGGITYYADSVKGRFTISRDNAKNTVYLQMNSLKPEDTAVYYCAADPYVLVWVEDYDYWVQGTQVTVSS	high polyreactivity
QVQLVESGGGLVQAGGSLRLSCAASGFTFWGNAMGWYRQAPGKEREMVAAITDTGSTNYADSVKGRCTISRDNAKNTVYLQMNSLKPEDTAVYYCAKDKAYYDWGQTNGYWGQGTQVTVSS	low polyreactivity
QVQLVESGGGLVQAGGSLRLSCAASGFTFWGYAMGWYRQAPGKERELVAGITRSGGNTYYADSVKGRFTISRDNAKNTVYLEMNSLKPEDSAVYYCAKRHFWNLTPYYFYRTIPDYYWGQGTQVTVSS	high polyreactivity
QVQLVESGGGLVQAGGSLRLSCAASGFTFWIYAMGWYRQAPGKERELVAVISRGGSTYYADSVKGRFTISRDNAKNTVYLQMNSMKPEDTAVYYCNAVGVRGYDYWGQGTQVTVSS	high polyreactivity
QVQLVESGGGLVQAGGSLRLSCAASGFTFWKYTMGWYRQAPGKERELVAAITNSGTSTYYADSVKGRFTISRDNAKNTVYLQMNSLKPEDTAVYYCARDNEPDYYSYPYDYWGQGTQVTVSS	low polyreactivity
QVQLVESGGGLVQAGGSLRLSCAASGFTFWLYAMGWYRQATGKEREFVAAISTSGGSTYADSVKGRFTISRDNAKNTVYLQMNSLKPEDTAVYYCNAGYLLYYDYHLFYWGQGTQVTVSS	low polyreactivity
QVQLVESGGGLVQAGGSLRLSCAASGFTFWPYAMGWYRQAPGKERELVAAITWSGGRTYYADSVKGRFTISRDNAKNTVYLQMNSLKPEDTAVYYCNVDAYGYRPYRYYYWGQGTQVTVSS	high polyreactivity
QVQLVESGGGLVQAGGSLRLSCAASGFTFWQYTMGWYRQAPGKERDFVASITSGVSTYYADSVKGSFTISRENAKNTVYLQMNSVKPEDTAVYYCAAYYYRRYLRGFFENWGQGTQVTVSS	high polyreactivity
QVQLVESGGGLVQAGGSLRLSCAASGFTFWRNTMGWYRQEPGKERELVAGISGSGGSTYYADSVKGRFTSSRDNAKNTVYLQMNSLKPEDTAVYYCAKEPNVGTWRRWRYNYCGQGTQVTVSS	high polyreactivity
QVQLVESGGGLVQAGGSLRLSCAASGFTFWRNVMGWYRQAPGKERELVAVISRGGSTNYADSVKGRFTISRDNAKNTVYLQMNRLKPEDTAVYYCPKYARGPSKVDYWGQGTQVTVSS	high polyreactivity
QVQLVESGGGLVQAGGSLRLSCAASGFTFWRYAKGWYRHAPGKERELVAAISSGGSTNYADSVKGRFTISRDNAKNTVYIQMNSLKPEDTAVYYCNARYYHKRSTRVIFPYDYWGQGTQVTVSS	high polyreactivity
QVQLVESGGGLVQAGGSLRLSCAASGFTFWRYAMGWYRQAPGKERELVAAISRSGGGTYYADSVKGRFTISRDNAKNTVYLQMNSLKPEDTAVYYCAAALYKGSGELDYWGQGTQVTVSS	high polyreactivity
QVQLVESGGGLVQAGGSLRLSCAASGFTFWRYAMGWYRQAPGKERELVAAISWRGSSTYYADSVKGRFTISRDNAKNTVYLQMNSLKPEDSAVYYCAARYITFNGYGYGYWGQGTQVTVSS	high polyreactivity
QVQLVESGGGLVQAGGSLRLSCAASGFTFWRYAMGWYRQAPGKERELVAAISYSGGSTYYADSVKGRFTISRDYAKNTVYLQMNSLKPEDTAVYYCNAETGYGVYRTKYGYWGQGTQVTVSS	high polyreactivity
QVQLVESGGGLVQAGGSLRLSCAASGFTFWRYGMGWYRQAPGKERELVASITSGGGTNYADSVKGRFTISRDNAKNTVYFQMNSLKPEDTAVYYCAATYPYSWVYSGYYYWGQGTQVTVSS	low polyreactivity

Sequence	polyreactivity (PSR sort gate)
QVQLVESGGGLVQAGGSLRLSCAASGFTFWTYAMGWYRPAPGKERELVAAIDSGVSTYYADSVKGRFTISRDNAKNTVYLQMNSLKPEDTAVYYCNAGPSVTSGYDYDYWGQGTQVTVSS	low polyreactivity
QVQLVESGGGLVQAGGSLRLSCAASGFTFWTYAMGWYRQAPGKERELVAAIDSGGSTYYADSVKGRFTISRDNAKNTVYLQMNSLKPEDTAVYYCAKDVLAPYSRHDYWGQGTQVTVSS	low polyreactivity
QVQLVESGGGLVQAGGSLRLSCAASGFTFWTYAMGWYRQAPGKERELVAAIDSGGSTYYADSVKGRFTISRDNAKNTVYLQMNSLKPEDTAVYYCNAGPSVTSGYDYDYWGQGTQVTVSS	low polyreactivity
QVQLVESGGGLVQAGGSLRLSCAASGFTFWTYDMGWYRQAPGKERELVAAISTSGGSTYYADSVKGRFTISRDNAKNTVYLQMNSLKPEDTAVYYCAAYAIGEHFRARYGYWGQGTQVTVSS	high polyreactivity
QVQLVESGGGLVQAGGSLRLSCAASGFTFWWYTMGWYRPAPGKERELVAAITSGGSTYYADSVKGRFTISRDNAKNTVYLQMNSLKPEDTAVYYCNVVPYLYGLDGYDYWGQGTQVTVSS	high polyreactivity
QVQLVESGGGLVQAGGSLRLSCAASGFTFWYYAMGWYRQAPGKERELVAAIDSGVTRTYYADSVKGRFTISRDNAKNTVYLQMNSLKPEDTAVYYCNADFVWRGDYWGQGTQVTVSS	low polyreactivity
QVQLVESGGGLVQAGGSLRLSCAASGFTFWYYAMGWYRQAPGKERELVARITSRGADTYADSVKGRFTISRDNAKNTVYLQKNSLKPEDTAVYYCNAEFGRARDDDYWGQGTQVTVSS	low polyreactivity
QVQLVESGGGLVQAGGSLRLSCAASGFTFYANAMGWYRQAPGKERELVAAIDESGTSTNYADSVKGRFTISRDNAKNTVYLQMNSQKPEDTAVYYCAADGNSTGVYLDGGEGFAYDYWGHGTQVTVSS	low polyreactivity
QVQLVESGGGLVQAGGSLRLSCAASGFTFYDNAMGWYRQAPGKERELVAAISSSGTRTYYADSVKGRFTISRDNAKNTVYLQMNSLKPEDTAVYYCAARGQAYSGDRMYYWGQGTQVTVSS	high polyreactivity
QVQLVESGGGLVQAGGSLRLSCAASGFTFYGNAMGWYRQAPGKERELVASISTYYADSVKGRFTISRDNAKNTVYLQMNSLKPEDTAVYYCAATHYDRTYYVIYDYWGQGTQVTVST	low polyreactivity
QVQLVESGGGLVQAGGSLRLSCAASGFTFYGYAMGWYRQAPGKERELVAAINSAGRTYYADSVKGRFTISRDNAKNTVYLQMNSLKPEDTAVYYCASKYVRGHGYWGQGTQVTVSS	high polyreactivity
QVQLVESGGGLVQAGGSLRLSCAASGFTFYGYAMGWYRQAPGKERELVAAISSRGSRTYYADSVKGRFTISRDNAKNTGYLQMNSLKPEDTAFYYCAVDKAITQGLYDYWGQGTQVTVSS	high polyreactivity
QVQLVESGGGLVQAGGSLRLSCAASGFTFYGYAMGWYRQAPGKERELVAAISSSGGRTYYADSVKGRFTISRDNAKNTVYLQMNSLKPEDTAVYYCAADYTSRDYYYWGQGTQVTVSS	high polyreactivity
QVQLVESGGGLVQAGGSLRLSCAASGFTFYGYAMGWYRQAPGKERELVAAISSSGTSTYYADSVKGRFTISRDNEKNTVYLQMNSLKPEDTAVYYCAKDFYRRYYSWGQGTQVTVSS	high polyreactivity
QVQLVESGGGLVQAGGSLRLSCAASGFTFYHNAMGWYRHAPGKERELVATITARGGRTYYADSVKGRFTISRDNAKNTVYLQMISLKPEDTAVYYCNVKASRGYTYEYDYWGQGTQVTVSS	high polyreactivity
QVQLVESGGGLVQAGGSLRLSCAASGFTFYIYAMGWYRQAPGKERELVAAITTSGDSTYYADSVKGRFTISRDNAKNTVYLQMNSLKPEDTAVYYCAAEYWYTYSWGQGTQVTVLS	low polyreactivity
QVQLVESGGGLVQAGGSLRLSCAASGFTFYKNAMGWYRQAPGKERELVAAISRSGGSTYYADSVKGRFTISRDNAKNTVYLKMNSLKPEDTAVYYWAKGYCNFYRSDYWGQGTHVTVSS	high polyreactivity
QVQLVESGGGLVQAGGSLRLSCAASGFTFYKYAMGWYRQAPGKEREFVASITVRTGSTSYADSVKGRFTISRDNAKNTVYLQMNSLKPEDTAVYYCAAETYYYSWYYLGYTYDYWGHGTQVTVSS	high polyreactivity
QVQLVESGGGLVQAGGSLRLSCAASGFTFYKYTMGWYRQAPGKERELVAAISARGGSTYYADSVKGRFTISRDNAKNTVYLQMNSLKPEDTAVYYCAADYWRTYGLGYDYWGQGTQVTVSS	high polyreactivity
QVQLVESGGGLVQAGGSLRLSCAASGFTFYKYVMGWYRQAPGKERELVAAITTSGGSTYFADSVKGRFTISRDNAKNSVYLEMNSLKPEDTAVYYCNARSLHTSEGDYWGQGSQVTVSS	low polyreactivity
QVQLVESGGGLVQAGGSLRLSCAASGFTFYLNAMGWYRQAPGKERELVAAISYSDGSTYYADSVKGRFTISRDNAKNTVYLQMNRLKPEDTAVYFCAADTTDPGGAYQLMDYWGQGTQVTVSS	high polyreactivity
